Experimental data from patent US20200150118A1.

Biological target: T1, S100A9 (alarmin) in autologous bone marrow plasma of MDS patients (human) (UniProt P06702)
T1 sequence (looked up): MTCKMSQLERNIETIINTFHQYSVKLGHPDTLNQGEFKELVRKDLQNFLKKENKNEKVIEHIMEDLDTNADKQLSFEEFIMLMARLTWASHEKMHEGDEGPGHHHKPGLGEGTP
Test: cell-based or functional assay

reduction of the fraction of pyroptotic cells, CD33+ cells (MDS BM-MNC in autologous BM plasma, flow cytometry): 68% | reduction of the fraction of pyroptotic cells, CD71+ cells (MDS BM-MNC in autologous BM plasma, flow cytometry): 64% | reduction of the fraction of pyroptotic cells, progenitor cells (MDS BM-MNC in autologous BM plasma, flow cytometry): 23% | reduction of the fraction of pyroptotic cells, stem cells (MDS BM-MNC in autologous BM plasma, flow cytometry): 44%
Substance: S100A9 high-affinity chimeric (CD33-IgG1) decoy receptor (from UniProt P20138 18-259) (Fc fusion)
